Measurements: article PMC3407194, “Viral Reverse Transcriptases Show Selective High Affinity Binding to DNA-DNA Primer-Templates that Resemble the Polypurine Tract”

B1: MuLV DNA PPT (dsDNA)
DNA 1: GCCTGCAGGTCGACTCTAGATAGTCTCCAGAAAAAGGGGGG
DNA 2: CATTCCCCCCTTTTTCTGGAGACTATCTAGAGTCGACCTGCAGGC
B2: AMV DNA PPT (dsDNA)
DNA 1: GCCTGCAGGTCGACTCTAGAGCTTTTGCATAGGGAGGGGGA
DNA 2: CATTTCCCCCTCCCTATGCAAAAGCTCTAGAGTCGACCTGCAGGC
B3: HIV DNA PPT (41/45) (dsDNA)
DNA 1: GCCTGCAGGTCGACTCTAGACTTTTTAAAAGAAAAGGGGGG
DNA 2: CAGTCCCCCCTTTTCTTTTAAAAAGTCTAGAGTCGACCTGCAGGC
B4: TY3 DNA PPT (dsDNA)
DNA 1: GCCTGCAGGTCGACTCTAGAGACAACCCTGAGAGAGAGGAA
DNA 2: CATCTTCCTCTCTCTCAGGGTTGTCTCTAGAGTCGACCTGCAGGC
B5: AMV R12-2 (dsDNA)
DNA 1: GCCTGCAGGTCGACTCTAGATCACAAAGACCGGCGGGGTAA
DNA 2: ATCTTTACCCCGCCGGTCTTTGTGATCTAGAGTCGACCTGCAGGC
B6: AMV R12-3 (dsDNA)
DNA 1: GCCTGCAGGTCGACTCTAGACGGGCAGTGTAATGAAGGCCA
DNA 2: CTTCTGGCCTTCATTACACTGCCCGTCTAGAGTCGACCTGCAGGC
B7: MuLV R14-2 (dsDNA)
DNA 1: GCCTGCAGGTCGACTCTAGACACCAGGACATGATGGCAGGA
DNA 2: ATCTTCCTGCCATCATGTCCTGGTGTCTAGAGTCGACCTGCAGGC
B8: MuLV R14-1 (dsDNA)
DNA 1: GCCTGCAGGTCGACTCTAGAATAAGGAAGATCTGCGGGGGG
DNA 2: CTTTCCCCCCGCAGATCTTCCTTATTCTAGAGTCGACCTGCAGGC
B9: MuLV R14-3 (dsDNA)
DNA 1: GCCTGCAGGTCGACTCTAGAGAGATGTAGCGCATGAAGGTA
DNA 2: CTTCTACCTTCATGCGCTACATCTCTCTAGAGTCGACCTGCAGGC
B10: Control-2 (DNA:RNA)
RNA: AAUUCGAGCUCGGUA
DNA: CAGTTACCGAGCTCGAATT
modifications: strand 1 RNA, strand 2 DNA
B11: Control-1 (DNA:RNA)
?: AAAAGAAAAGCGCGC
DNA: CAGTGCGCGCTTTTCTTTT
modifications: strand 1 RNA, strand 2 DNA
B12: Ty3+3 RNA PPT (DNA:RNA)
RNA: CCUGAGCGCGCGGCC
DNA: CAGCGGCCGCGCGCTCAGG
modifications: strand 1 RNA, strand 2 DNA
B13: Ty3 RNA PPT (DNA:RNA)
?: GAGCGCGCGGCC
DNA: CAGCGGCCGCGCGCTCAGG
modifications: strand 1 RNA, strand 2 DNA

target: T1, Ty3 RT (Ty3 retrotransposon, UniProt Q99315 536-1011); test: primer extension with trap; 6 mM Mg2+; Primer extension: 50 mM Tris-HCl pH 8.0, 80 mM KCl, 6 mM MgCl2, 1 mM DTT, 0.1 mg/ml BSA, room temperature, 1 nM duplex; filter binding: Tris-HCl pH 8.0, 80 mM KCl, 1 mM DTT, without Mg2+ (wt) or 6 mM Mg2+ (E478Q), room temperature, 5 nM hybrid (Table 1 units nM inferred); conditions: protein: recombinant; label: 5'-32P primer; 41 nt primer on 45 nt template, 5' overhang 4 nt (template)
T1 sequence: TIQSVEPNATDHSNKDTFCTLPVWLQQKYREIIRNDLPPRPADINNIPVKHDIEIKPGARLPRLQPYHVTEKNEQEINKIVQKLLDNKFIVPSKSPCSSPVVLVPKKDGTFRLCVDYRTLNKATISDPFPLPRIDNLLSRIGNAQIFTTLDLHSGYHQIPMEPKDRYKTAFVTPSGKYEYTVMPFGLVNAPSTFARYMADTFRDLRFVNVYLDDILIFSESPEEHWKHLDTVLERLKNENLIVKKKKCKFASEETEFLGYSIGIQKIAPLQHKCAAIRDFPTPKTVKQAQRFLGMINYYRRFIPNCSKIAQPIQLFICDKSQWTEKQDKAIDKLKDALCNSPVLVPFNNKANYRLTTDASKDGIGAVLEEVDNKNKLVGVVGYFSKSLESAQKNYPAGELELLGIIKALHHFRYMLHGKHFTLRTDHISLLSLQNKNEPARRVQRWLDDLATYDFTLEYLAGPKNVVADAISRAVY

| Binder | Kd |
| --- | --- |
| B1 | 45 ± 4 nM |
| B2 | 58 ± 4 nM |
| B3 | 53 ± 12 nM |
| B4 | 84 ± 26 nM |

target: T2, HIV RT (HIV, UniProt P04585;P04585 588-1147;588-1027); test: as above; conditions: protein: commercial; copies: 1;1; label: 5'-32P primer; 41 nt primer on 45 nt template, 5' overhang 4 nt (template)

| Binder | Kd |
| --- | --- |
| B1 | 3.5 ± 0.5 nM |
| B2 | 8.2 ± 2 nM |
| B3 | 3.2 ± 0.2 nM |
| B4 | 57 ± 10 nM |

target: T3, AMV RT (avian myeloblastosis virus, UniProt Q83133;Q83133 6-577;6-864); test: as above; conditions: protein: commercial; copies: 1;1; label: 5'-32P primer; 41 nt primer on 45 nt template, 5' overhang 4 nt (template)
T3 sequence 1: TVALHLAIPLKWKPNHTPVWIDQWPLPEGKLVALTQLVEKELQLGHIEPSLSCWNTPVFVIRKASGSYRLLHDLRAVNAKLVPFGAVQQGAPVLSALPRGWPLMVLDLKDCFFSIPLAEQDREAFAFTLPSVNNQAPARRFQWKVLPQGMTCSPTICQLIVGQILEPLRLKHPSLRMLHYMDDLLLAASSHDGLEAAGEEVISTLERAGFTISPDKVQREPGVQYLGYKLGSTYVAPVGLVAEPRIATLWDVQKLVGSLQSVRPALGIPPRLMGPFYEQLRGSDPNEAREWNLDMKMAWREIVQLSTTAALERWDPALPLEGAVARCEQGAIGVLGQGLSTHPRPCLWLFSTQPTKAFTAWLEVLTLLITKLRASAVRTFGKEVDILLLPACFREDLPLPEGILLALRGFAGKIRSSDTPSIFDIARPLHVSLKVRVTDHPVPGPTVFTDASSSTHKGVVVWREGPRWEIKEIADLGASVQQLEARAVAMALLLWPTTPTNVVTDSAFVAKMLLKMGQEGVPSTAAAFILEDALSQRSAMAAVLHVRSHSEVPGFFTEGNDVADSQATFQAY
T3 sequence 2: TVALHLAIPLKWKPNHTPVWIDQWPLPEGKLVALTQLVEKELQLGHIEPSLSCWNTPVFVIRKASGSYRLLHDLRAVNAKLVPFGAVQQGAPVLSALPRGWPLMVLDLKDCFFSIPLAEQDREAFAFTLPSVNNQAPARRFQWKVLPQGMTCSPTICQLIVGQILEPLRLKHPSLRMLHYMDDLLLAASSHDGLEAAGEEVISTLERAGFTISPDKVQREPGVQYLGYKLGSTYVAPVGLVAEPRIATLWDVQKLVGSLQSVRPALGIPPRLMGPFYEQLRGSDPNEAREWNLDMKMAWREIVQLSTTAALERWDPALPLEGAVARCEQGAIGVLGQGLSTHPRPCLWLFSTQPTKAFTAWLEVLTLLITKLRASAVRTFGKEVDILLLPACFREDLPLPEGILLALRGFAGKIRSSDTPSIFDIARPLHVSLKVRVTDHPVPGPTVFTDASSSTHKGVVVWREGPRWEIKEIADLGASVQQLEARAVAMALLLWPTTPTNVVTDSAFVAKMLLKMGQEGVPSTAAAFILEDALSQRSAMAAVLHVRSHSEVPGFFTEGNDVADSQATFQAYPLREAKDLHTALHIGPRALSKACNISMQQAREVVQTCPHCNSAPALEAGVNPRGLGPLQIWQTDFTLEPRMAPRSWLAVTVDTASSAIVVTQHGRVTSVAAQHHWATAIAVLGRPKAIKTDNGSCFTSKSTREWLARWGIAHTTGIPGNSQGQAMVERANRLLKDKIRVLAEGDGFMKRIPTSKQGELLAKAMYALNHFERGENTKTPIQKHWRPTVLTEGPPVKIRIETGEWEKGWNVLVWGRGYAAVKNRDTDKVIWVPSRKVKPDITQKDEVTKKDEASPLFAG

| Binder | Kd |
| --- | --- |
| B1 | 2.6 ± 0.2 nM |
| B2 | 1 ± 0.1 nM |
| B3 | 2.1 ± 0.4 nM |
| B5 | 3.5 ± 0.1 nM |
| B4 | 12 ± 2 nM |
| B6 | 6.8 ± 0.1 nM |

target: MuLV RT (Moloney murine leukemia virus, UniProt P03355 660-1330); test: primer extension with trap; 6 mM Mg2+; Primer extension: 50 mM Tris-HCl pH 8.0, 80 mM KCl, 6 mM MgCl2, 1 mM DTT, 0.1 mg/ml BSA, room temperature, 1 nM duplex; filter binding: Tris-HCl pH 8.0, 80 mM K; conditions: not given

| Binder | Kd |
| --- | --- |
| B7 | 77 nM |
| B1 | 12 nM |
| B2 | 17 nM |
| B3 | 7.5 nM |
| B4 | 46 nM |
| B8 | 8.1 nM |
| B9 | 53 nM |

target: T2, HIV RT; test: filter binding; no Mg2+; Primer extension: 50 mM Tris-HCl pH 8.0, 80 mM KCl, 6 mM MgCl2, 1 mM DTT, 0.1 mg/ml BSA, room temperature, 1 nM duplex; filter binding: Tris-HCl pH 8.0, 80 mM KCl, 1 mM DTT, without Mg2+ (wt) or 6 mM Mg2+ (E478Q), room temperature, 5 nM hybrid (Table 1 units nM inferred); conditions: protein: commercial; copies: 1;1; label: 5'-32P primer; 5' overhang 4 nt (template)

| Binder | Kd |
| --- | --- |
| B10 | 2610 ± 710 nM |
| B11 | 1760 ± 290 nM |

same assay, conditions: protein: commercial; copies: 1;1; label: 5'-32P primer; 5' overhang 4 nt (template); printed U opposite A

| Binder | Kd |
| --- | --- |
| B12 | 900 ± 205 nM |

same assay, conditions: protein: commercial; copies: 1;1; label: 5'-32P primer; template 5' overhang 4 nt, 3' overhang 3 nt

| Binder | Kd |
| --- | --- |
| B13 | 2380 ± 840 nM |
